Assay results as given in article PMC5578738 (eLife, 2017).

Molecular target: T1, Side-VI (CG34114) complete ectodomain, biotinylated (SPR) (Drosophila melanogaster, UniProt Q0KI85 1-1087, biotin on the biotin acceptor peptide (E. coli BirA))
T1 construct: Side-VI (CG34114), Drosophila, complete ectodomain; source: Trichoplusia ni High Five cells, baculovirus, secreted, purified (Ni-NTA, SEC)
T1 sequence (looked up): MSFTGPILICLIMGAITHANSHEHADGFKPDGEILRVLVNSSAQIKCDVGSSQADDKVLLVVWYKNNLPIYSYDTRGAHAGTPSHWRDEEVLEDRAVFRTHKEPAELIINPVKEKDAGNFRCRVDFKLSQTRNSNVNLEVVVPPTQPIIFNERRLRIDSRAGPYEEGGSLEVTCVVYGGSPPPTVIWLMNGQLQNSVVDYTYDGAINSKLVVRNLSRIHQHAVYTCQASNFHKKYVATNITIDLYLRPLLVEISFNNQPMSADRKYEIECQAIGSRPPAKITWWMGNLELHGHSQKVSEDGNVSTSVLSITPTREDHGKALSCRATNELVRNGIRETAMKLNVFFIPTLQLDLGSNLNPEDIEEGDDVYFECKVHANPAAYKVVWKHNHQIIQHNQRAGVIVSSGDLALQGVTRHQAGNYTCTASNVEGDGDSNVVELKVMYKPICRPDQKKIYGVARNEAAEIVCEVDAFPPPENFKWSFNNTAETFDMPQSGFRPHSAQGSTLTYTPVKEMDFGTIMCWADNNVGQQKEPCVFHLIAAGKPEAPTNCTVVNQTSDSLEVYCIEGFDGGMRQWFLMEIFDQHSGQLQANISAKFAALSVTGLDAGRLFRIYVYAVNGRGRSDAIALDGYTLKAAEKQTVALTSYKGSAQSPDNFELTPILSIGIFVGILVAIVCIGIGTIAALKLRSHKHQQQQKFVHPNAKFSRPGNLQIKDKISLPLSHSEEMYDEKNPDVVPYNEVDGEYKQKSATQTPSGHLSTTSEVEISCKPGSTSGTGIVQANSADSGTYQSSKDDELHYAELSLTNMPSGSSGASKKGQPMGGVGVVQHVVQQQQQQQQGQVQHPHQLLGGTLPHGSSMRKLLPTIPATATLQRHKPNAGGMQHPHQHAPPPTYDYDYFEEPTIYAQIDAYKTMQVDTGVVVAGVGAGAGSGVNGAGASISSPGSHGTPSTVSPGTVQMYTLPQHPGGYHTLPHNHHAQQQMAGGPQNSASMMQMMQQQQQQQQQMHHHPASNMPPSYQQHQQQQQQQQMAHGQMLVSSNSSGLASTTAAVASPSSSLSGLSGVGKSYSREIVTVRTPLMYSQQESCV
Experiment: SPR; Biacore T100; biotinylated Side-VI captured on an SA chip, Beat-Va or Beat-Vb flowed over; HBSp+ with 500 mM NaCl and 15% glycerol; equilibrium responses fitted to a Langmuir isotherm
Settings: both partners purified

Kd: 760 nM
koff: ≥ 0.5 s⁻¹
B1: Beat-Va complete ectodomain (SPR) (domain or fragment)
chain: LFVTDISVPEIVDFRDNVTLSCSYDMRGHTLNSVKWYKDHEEFFRYSPLTSPIYMTFDVAGLQVLEGKYVCNESSCRLDLSLQGAKSTGLYKCEVSGDAPHFKLADKADNMTVAALPQNDPLIESFNSMYRMEEYLKATCISDFSSLPTRLTWYINGEQPLLGELYPTTDTSLAAHDYVLRRQRLQVQFFLQGQRFFQAGKILELKCVAEIENYPELRREKTLSASLSQYDNFNNQMPLRHANANSGSAQRSILCGRTSLISAFLAAILLIHCLRRPS
